Assay results: patent US20210101970A1 (Pfizer, published 2021)

Tests used:
[1] = biological target: T1, human CXCR5 (human, UniProt P32302 1-372); assay: cell-based or functional assay
T1 sequence: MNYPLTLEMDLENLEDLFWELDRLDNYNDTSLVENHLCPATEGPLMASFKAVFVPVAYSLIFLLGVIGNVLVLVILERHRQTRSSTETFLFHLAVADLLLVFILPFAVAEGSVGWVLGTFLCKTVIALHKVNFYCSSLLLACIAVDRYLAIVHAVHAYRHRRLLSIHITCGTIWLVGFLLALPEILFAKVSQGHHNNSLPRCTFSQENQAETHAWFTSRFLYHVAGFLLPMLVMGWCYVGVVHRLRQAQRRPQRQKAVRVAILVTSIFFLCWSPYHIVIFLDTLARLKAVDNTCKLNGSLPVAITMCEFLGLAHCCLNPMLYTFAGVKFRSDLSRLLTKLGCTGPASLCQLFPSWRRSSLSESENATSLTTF

[2] = biological target: T1, human CXCR5; assay: flow cytometry, human PBMC B cells
Method in brief: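 Human and cynomolgus PBMCs stained with 4-fold serial antibody dilutions (11 points from 5000 ng/mL) plus Fc block, 2 h on ice, then lineage markers and anti-human Ig secondary 30 min at 4 °C. gMFI of binding population read by flow cytometry; EC50 from sigmoidal fit of equilibrium binding curves.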

[3] = biological target: T2, mouse CXCR5 (mouse, UniProt Q04683 1-374); assay: flow cytometry on cells expressing mouse CXCR5
T2 construct: also called mCXCR5
T2 sequence: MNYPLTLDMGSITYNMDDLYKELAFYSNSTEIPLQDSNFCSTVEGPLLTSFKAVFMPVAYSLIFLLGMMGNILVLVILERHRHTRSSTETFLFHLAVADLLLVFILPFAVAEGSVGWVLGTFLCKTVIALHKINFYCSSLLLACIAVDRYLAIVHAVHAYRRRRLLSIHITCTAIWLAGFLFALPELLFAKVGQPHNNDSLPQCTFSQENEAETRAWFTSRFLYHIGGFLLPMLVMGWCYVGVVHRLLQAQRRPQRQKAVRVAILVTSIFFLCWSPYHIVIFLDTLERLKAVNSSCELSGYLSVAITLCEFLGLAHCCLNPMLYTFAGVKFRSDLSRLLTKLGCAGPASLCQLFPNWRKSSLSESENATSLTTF

[4] = biological target: T1, human CXCR5; assay: FACS on cells expressing the CXCR5 construct
[5] = biological target: T2, mouse CXCR5; assay: FACS on cells expressing the CXCR5 construct
[6] = biological target: T3, XC251; assay: FACS on cells expressing the CXCR5 construct
T3 construct: whole, on cells; also called hCXCR5-mL3

[7] = biological target: T4, XC252; assay: FACS on cells expressing the CXCR5 construct
T4 construct: whole, on cells; also called hCXCR5-mL2

[8] = biological target: T5, XC253; assay: FACS on cells expressing the CXCR5 construct
T5 construct: whole, on cells; also called hCXCR5-mN

[9] = biological target: T6, XC254; assay: FACS on cells expressing the CXCR5 construct
T6 construct: whole, on cells; also called hCXCR5-mL2-mL3

[10] = biological target: T7, XC255; assay: FACS on cells expressing the CXCR5 construct
T7 construct: whole, on cells; also called hCXCR5-mN-mL3

[11] = biological target: T8, XC256; assay: FACS on cells expressing the CXCR5 construct
T8 construct: whole, on cells; also called hCXCR5-mN-mL2

[12] = biological target: T9, cynomolgus monkey CXCR5 (cynomolgus monkey, UniProt P32302 1-372 (human entry)); assay: cell-based or functional assay
T9 chain: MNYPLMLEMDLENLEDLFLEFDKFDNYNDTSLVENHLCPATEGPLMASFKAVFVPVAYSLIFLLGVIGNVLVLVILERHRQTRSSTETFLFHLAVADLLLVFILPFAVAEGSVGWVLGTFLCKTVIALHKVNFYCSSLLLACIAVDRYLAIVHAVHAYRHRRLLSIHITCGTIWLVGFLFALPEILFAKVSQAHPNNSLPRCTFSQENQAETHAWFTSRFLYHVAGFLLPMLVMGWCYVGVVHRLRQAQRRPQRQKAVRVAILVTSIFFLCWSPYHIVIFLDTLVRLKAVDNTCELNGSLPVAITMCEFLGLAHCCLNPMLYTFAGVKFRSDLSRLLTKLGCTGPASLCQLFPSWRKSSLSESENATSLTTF

B1: 2C9 (reference antibody) (antibody, human IgG1, kappa, V domains shown)
VH: EVQLVESGGGLVKPGGSLRLSCAASGFTFSTNAMNWVRQAPGKGLERVARIRSKSNNYATYYADSVKDRFTISRDDSKNTLYLQMNSLKTEDTAVYYCVTMIPFAYWGQGTLVTVSS
VL: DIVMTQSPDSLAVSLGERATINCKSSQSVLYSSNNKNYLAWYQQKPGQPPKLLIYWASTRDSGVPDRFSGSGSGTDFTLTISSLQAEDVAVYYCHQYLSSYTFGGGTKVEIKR
notes: fucosylated
ADCC Activity Average EC50, Human B Cells [1]: 0.38 nM
EC50 [2]: 0.0656 nM
binding result [3]: no binding
GMFI [4]: 117000 GMFI
GMFI [5]: 1180 GMFI
GMFI [6]: 13300 GMFI
GMFI [7]: 22400 GMFI
GMFI [8]: 1780 GMFI
GMFI [9]: 11400 GMFI
GMFI [10]: 1950 GMFI
GMFI [11]: 1970 GMFI

B2: Chimeric 11G2 (antibody, human IgG1, kappa, V domains shown)
VH: EVKLVESGGGLVQPGGSLRLSCATSGFTFTDFYMSWVRQPPGRALEWLGFIRNKANGYTTEYSASVKGRFTISRDNSQSILYLQMNTLRAGDSATYYCVRVYGSTLHYWGQGTILTVSS
VL: DVVVTQSPDSLAVSLGQRATISCRASESVEYHGTSLMHWYQQKPGQPPKLLIYAASNVESGVPARFSGSGSGTDFSLNIHPVEEGDIAMYFCQQSRKVPWTFGGGTKLEIKR
notes: mouse V regions on human IgG1/kappa; also called 11G2 (chimeric)
ADCC Activity Average EC50, Human B Cells [1]: 0.564 nM
ADCC Activity Average EC50, Human Tfh Cells [1]: 0.00155 nM
ADCC Activity Average EC50, NHP B Cells [12]: 0.115 nM
EC50 [2]: 0.0179 nM

B3: Afucosyl humanized 11G2 154/155 (antibody, human IgG1, kappa, V domains shown)
VH: EVQLVESGGGLVQPGGSLRLSCAASGFTFTDFYMSWVRQAPGKGLEWVGFIRNKANGYTTEYSASVKGRFTISRDNAKNSLYLQMNSLRAEDTAVYYCARVYGSTLHYWGQGTLVTVSS
VL: DIQMTQSPSSLSASVGDRVTITCRASESVEYHGTSLMHWYQQKPGKAPKLLIYAASNVESGVPSRFSGSGSGTDFTLTISSLQPEDFATYYCQQSRKVPWTFGQGTKVEIKR
modifications: afucosylated Fc glycan (Asn297)
notes: also called afucosyl h11G2 XC154/XC155; afucosylated h11G2 VL XC154/VH XC155
ADCC Activity Average EC50, Human B Cells [1]: 0.00201 nM
ADCC Activity Average EC50, Human Tfh Cells [1]: 0.00011 nM
ADCC Activity Average EC50, Human Tfh-like Cells [1]: 0.00482 nM
ADCC Activity Average EC50, NHP B Cells [12]: 0.0153 nM
EC50 [2]: 0.0066 nM
binding result [3]: no binding
GMFI [4]: 139000 GMFI
GMFI [5]: 901 GMFI
GMFI [6]: 14600 GMFI
GMFI [7]: 21600 GMFI
GMFI [8]: 1220 GMFI
GMFI [9]: 11500 GMFI
GMFI [10]: 1320 GMFI
GMFI [11]: 1260 GMFI
